The results in this text go back to US20240226298A1 (JUNO THERAPEUTICS, published 2024).

Assay in all cases: cell-based or functional assay
Test [1] has as its target T1, B-cell activating factor receptor (BAFF-R) (human, UniProt Q96RJ3 1-184).
Test [2] concerns the target T1, B-cell activating factor receptor …. This is another data set of the same source.
For test [3], the target named is T2, B-lymphocyte antigen CD19 (CD19) (human, UniProt P15391 20-556).
T2 sequence (looked up): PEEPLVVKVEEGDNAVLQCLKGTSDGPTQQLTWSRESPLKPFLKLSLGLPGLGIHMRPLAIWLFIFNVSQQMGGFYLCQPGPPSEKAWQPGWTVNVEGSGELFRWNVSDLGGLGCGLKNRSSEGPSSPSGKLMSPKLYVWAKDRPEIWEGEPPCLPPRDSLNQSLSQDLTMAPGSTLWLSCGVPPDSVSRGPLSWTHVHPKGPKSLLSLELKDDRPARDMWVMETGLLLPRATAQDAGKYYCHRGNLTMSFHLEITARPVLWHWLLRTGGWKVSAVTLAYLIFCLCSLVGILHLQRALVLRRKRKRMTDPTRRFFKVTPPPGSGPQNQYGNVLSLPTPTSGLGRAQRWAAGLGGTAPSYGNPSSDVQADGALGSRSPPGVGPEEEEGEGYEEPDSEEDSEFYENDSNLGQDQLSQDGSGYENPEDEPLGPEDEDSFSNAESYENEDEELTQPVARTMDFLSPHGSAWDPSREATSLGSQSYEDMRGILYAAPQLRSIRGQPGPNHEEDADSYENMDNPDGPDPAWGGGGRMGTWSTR

B1: JH2 CAR/LiD/a (other)
chain: DIQMTQTTSSLSASLGDRVTISCRASQDISKYLNWYQQKPDGTVKLLIYHTSRLHSGVPSRFSGSGSGTDYSLTISNLEQEDIATYFCQQGNTLPYTFGGGTKLEITGSTSGSGKPGSGEGSTKGEVKLQESGPGLVAPSQSLSVTCTVSGVSLPDYGVSWIRQPPRKGLEWLGVIWGSETTYYNSALKSRLTIIKDNSKSQVFLKMNSLQTDDTAIYYCAKHYYYGGSYAMDYWGQGTSVTVSSGGGGSQVQLQESGPGLVKPSETLSLTCTVSGGSISSYYWSWIRQPPGKGLEWIGYINNSGSTNYNPSLKSRVTISVDTSKNQFSLKLSSVTAADTAVYYCAREDDYWGQGTLVTVSSGGGGSGGGGSGGGGSEIVMTQSPATLSLSPGERATLSCRASQIISSSYLSWYQQKPGQAPRLLIYGASTRATGIPARFSGSGSGTDFTLTISSLQPEDFAVYYCQQDYDFPFTFGPGTKVDIKRESKYGPPCPPCPMFWVLVVVGGVLACYSLLVTVAFIIFWVKRGRKKLLYIFKQPFMRPVQTTQEEDGCSCRFPEEEEGGCELRVKFSRSADAPAYQQGQNQLYNELNLGRREEYDVLDKRRGRDPEMGGKPRRKNPQEGLYNELQKDKMAEAYSEIGMKGERRRGKGHDGLYQGLSTATKDTYDALHMQALPPR
Turning to B1, in test [1], the “decrease in IFN-γ production with sBAFF, alone or relative to FMC63 scFv alone (JeKo-1 co-culture)” value is at most 20% and the “decrease of IFN-γ with FMC63 scFv + sBAFF compared to the inhibition from FMC63 scFv alone (JeKo-1 co-culture)” value is at most 10%.

B2: JH4 CAR/LiD (other)
chain: DIQMTQTTSSLSASLGDRVTISCRASQDISKYLNWYQQKPDGTVKLLIYHTSRLHSGVPSRFSGSGSGTDYSLTISNLEQEDIATYFCQQGNTLPYTFGGGTKLEITGSTSGSGKPGSGEGSTKGEVKLQESGPGLVAPSQSLSVTCTVSGVSLPDYGVSWIRQPPRKGLEWLGVIWGSETTYYNSALKSRLTIIKDNSKSQVFLKMNSLQTDDTAIYYCAKHYYYGGSYAMDYWGQGTSVTVSSGGGGSQVQLQESGPGLVKPSETLSLTCTVSGGSISSYYWSWIRQSPGKGLEWIGYIHYSGNTNYNPSLKSRVTISVDTSKNQFSLKLSSVTAADTAVYYCAREDDYWGQGTLVTVSSGGGGSGGGGSGGGGSEIVMTQSPATLSLSPGERATLSCRASQSVSSNYLSWYQQKPGQAPRLLIYGASTRATGIPARFSGSGSGTDFTLTISSLQPEDFAVYYCQQDFDFPFTFGPGTKVDIKRESKYGPPCPPCPMFWVLVVVGGVLACYSLLVTVAFIIFWVKRGRKKLLYIFKQPFMRPVQTTQEEDGCSCRFPEEEEGGCELRVKFSRSADAPAYQQGQNQLYNELNLGRREEYDVLDKRRGRDPEMGGKPRRKNPQEGLYNELQKDKMAEAYSEIGMKGERRRGKGHDGLYQGLSTATKDTYDALHMQALPPR
On to B2, for which, in test [1], the “decrease in IFN-γ production with sBAFF, alone or relative to FMC63 scFv alone (JeKo-1 co-culture)” value is at most 20% and the “decrease of IFN-γ with FMC63 scFv + sBAFF compared to the inhibition from FMC63 scFv alone (JeKo-1 co-culture)” value is at most 10%.

B3: JH2 CAR/LiD/b (other)
chain: DIQMTQTTSSLSASLGDRVTISCRASQDISKYLNWYQQKPDGTVKLLIYHTSRLHSGVPSRFSGSGSGTDYSLTISNLEQEDIATYFCQQGNTLPYTFGGGTKLEITGSTSGSGKPGSGEGSTKGEVKLQESGPGLVAPSQSLSVTCTVSGVSLPDYGVSWIRQPPRKGLEWLGVIWGSETTYYNSALKSRLTIIKDNSKSQVFLKMNSLQTDDTAIYYCAKHYYYGGSYAMDYWGQGTSVTVSSGGGGSEIVMTQSPATLSLSPGERATLSCRASQIISSSYLSWYQQKPGQAPRLLIYGASTRATGIPARFSGSGSGTDFTLTISSLQPEDFAVYYCQQDYDFPFTFGPGTKVDIKRGGGGSGGGGSGGGGSQVQLQESGPGLVKPSETLSLTCTVSGGSISSYYWSWIRQPPGKGLEWIGYINNSGSTNYNPSLKSRVTISVDTSKNQFSLKLSSVTAADTAVYYCAREDDYWGQGTLVTVSSESKYGPPCPPCPMFWVLVVVGGVLACYSLLVTVAFIIFWVKRGRKKLLYIFKQPFMRPVQTTQEEDGCSCRFPEEEEGGCELRVKFSRSADAPAYQQGQNQLYNELNLGRREEYDVLDKRRGRDPEMGGKPRRKNPQEGLYNELQKDKMAEAYSEIGMKGERRRGKGHDGLYQGLSTATKDTYDALHMQALPPR
With B3, in test [1], the “decrease in IFN-γ production with sBAFF, alone or relative to FMC63 scFv alone (JeKo-1 co-culture)” value is at most 20% and the “decrease of IFN-γ with FMC63 scFv + sBAFF compared to the inhibition from FMC63 scFv alone (JeKo-1 co-culture)” value is at most 10%.

B4: JH2 CAR/LoD/b (other)
chain: QVQLQESGPGLVKPSETLSLTCTVSGGSISSYYWSWIRQPPGKGLEWIGYINNSGSTNYNPSLKSRVTISVDTSKNQFSLKLSSVTAADTAVYYCAREDDYWGQGTLVTVSSGGGGSDIQMTQTTSSLSASLGDRVTISCRASQDISKYLNWYQQKPDGTVKLLIYHTSRLHSGVPSRFSGSGSGTDYSLTISNLEQEDIATYFCQQGNTLPYTFGGGTKLEITGSTSGSGKPGSGEGSTKGEVKLQESGPGLVAPSQSLSVTCTVSGVSLPDYGVSWIRQPPRKGLEWLGVIWGSETTYYNSALKSRLTIIKDNSKSQVFLKMNSLQTDDTAIYYCAKHYYYGGSYAMDYWGQGTSVTVSSGGGGSEIVMTQSPATLSLSPGERATLSCRASQIISSSYLSWYQQKPGQAPRLLIYGASTRATGIPARFSGSGSGTDFTLTISSLQPEDFAVYYCQQDYDFPFTFGPGTKVDIKRESKYGPPCPPCPMFWVLVVVGGVLACYSLLVTVAFIIFWVKRGRKKLLYIFKQPFMRPVQTTQEEDGCSCRFPEEEEGGCELRVKFSRSADAPAYQQGQNQLYNELNLGRREEYDVLDKRRGRDPEMGGKPRRKNPQEGLYNELQKDKMAEAYSEIGMKGERRRGKGHDGLYQGLSTATKDTYDALHMQALPPR
With B4, in test [1], the “decrease in IFN-γ production with sBAFF, alone or relative to FMC63 scFv alone (JeKo-1 co-culture)” value was at most 20% and the “decrease of IFN-γ with FMC63 scFv + sBAFF compared to the inhibition from FMC63 scFv alone (JeKo-1 co-culture)” value is at most 10%.

B5: JH1 CAR/LoP (other)
chain: DIQMTQTTSSLSASLGDRVTISCRASQDISKYLNWYQQKPDGTVKLLIYHTSRLHSGVPSRFSGSGSGTDYSLTISNLEQEDIATYFCQQGNTLPYTFGGGTKLEITGGGGSQVQLVQSGAEVKKPGASVKVSCKASGYTFTSYAMHWVRQAPGQRLEWMGWINAGNGNTKYSQKFQGRVTITRDTSASTAYMELRSLRSDDTAVYYCASGPGRLPVVWGQGTLVTVSSGGGGSGGGGSGGGGSSYVLTQPPSVSVAPGKTARITCGGNNIGSKSVHWYQQKPGQAPVLVVYDDSDRPSGIPERFSGSNSGNTATLTISRVEAGDEADYYCQVWDSSSDHVVFGGGTKLTVLGGGGSEVKLQESGPGLVAPSQSLSVTCTVSGVSLPDYGVSWIRQPPRKGLEWLGVIWGSETTYYNSALKSRLTIIKDNSKSQVFLKMNSLQTDDTAIYYCAKHYYYGGSYAMDYWGQGTSVTVSSESKYGPPCPPCPMFWVLVVVGGVLACYSLLVTVAFIIFWVKRGRKKLLYIFKQPFMRPVQTTQEEDGCSCRFPEEEEGGCELRVKFSRSADAPAYQQGQNQLYNELNLGRREEYDVLDKRRGRDPEMGGKPRRKNPQEGLYNELQKDKMAEAYSEIGMKGERRRGKGHDGLYQGLSTATKDTYDALHMQALPPR
Regarding B5, in test [1], the “decrease in IFN-γ production with FMC63 scFv + sBAFF relative to FMC63 scFv alone (JeKo-1 co-culture)” value was over 50%. For the same molecule, the “inhibition of IFN-γ production by CAR T cells when JeKo-1 target cells were preincubated with both FMC63 scFv and sBAFF (20 µg/mL each), relative to target-only co-culture; legend: ++ = High, >80%” value in test [2] and in test [3] was over 80% throughout.

B6: JH2 CAR/LoP (other)
chain: DIQMTQTTSSLSASLGDRVTISCRASQDISKYLNWYQQKPDGTVKLLIYHTSRLHSGVPSRFSGSGSGTDYSLTISNLEQEDIATYFCQQGNTLPYTFGGGTKLEITGGGGSQVQLQESGPGLVKPSETLSLTCTVSGGSISSYYWSWIRQPPGKGLEWIGYINNSGSTNYNPSLKSRVTISVDTSKNQFSLKLSSVTAADTAVYYCAREDDYWGQGTLVTVSSGGGGSGGGGSGGGGSEIVMTQSPATLSLSPGERATLSCRASQIISSSYLSWYQQKPGQAPRLLIYGASTRATGIPARFSGSGSGTDFTLTISSLQPEDFAVYYCQQDYDFPFTFGPGTKVDIKRGGGGSEVKLQESGPGLVAPSQSLSVTCTVSGVSLPDYGVSWIRQPPRKGLEWLGVIWGSETTYYNSALKSRLTIIKDNSKSQVFLKMNSLQTDDTAIYYCAKHYYYGGSYAMDYWGQGTSVTVSSESKYGPPCPPCPMFWVLVVVGGVLACYSLLVTVAFIIFWVKRGRKKLLYIFKQPFMRPVQTTQEEDGCSCRFPEEEEGGCELRVKFSRSADAPAYQQGQNQLYNELNLGRREEYDVLDKRRGRDPEMGGKPRRKNPQEGLYNELQKDKMAEAYSEIGMKGERRRGKGHDGLYQGLSTATKDTYDALHMQALPPR
As to B6, in test [1], the “decrease in IFN-γ production with FMC63 scFv + sBAFF relative to FMC63 scFv alone (JeKo-1 co-culture)” value is over 50% and the “decrease of IFN-γ with FMC63 scFv + sBAFF compared to the inhibition from FMC63 scFv alone (JeKo-1 co-culture)” value was at most 10%. In test [2], the “inhibition of IFN-γ production by CAR T cells when JeKo-1 target cells were preincubated with both FMC63 scFv and sBAFF (20 µg/mL each), relative to target-only co-culture; legend: ++ = High, >80%” value is over 80%. Also, in test [3], the “inhibition of IFN-γ production by CAR T cells when JeKo-1 target cells were preincubated with both FMC63 scFv and sBAFF (20 µg/mL each), relative to target-only co-culture; legend: ++ = High, >80%” value is over 80%.

B7: JH3 CAR/LoD (other)
chain: EIVMTQSPATLSLSPGERATLSCRASQSVSSNYFSWYQQKPGQAPRLLIYGASTRATGIPARFSGSGSGTDFTLTISSLQPEDFAVYYCQQDYDFPFTFGPGTKVDIKRGGGGSGGGGSDIQMTQTTSSLSASLGDRVTISCRASQDISKYLNWYQQKPDGTVKLLIYHTSRLHSGVPSRFSGSGSGTDYSLTISNLEQEDIATYFCQQGNTLPYTFGGGTKLEITGSTSGSGKPGSGEGSTKGEVKLQESGPGLVAPSQSLSVTCTVSGVSLPDYGVSWIRQPPRKGLEWLGVIWGSETTYYNSALKSRLTIIKDNSKSQVFLKMNSLQTDDTAIYYCAKHYYYGGSYAMDYWGQGTSVTVSSGGGGSGGGGSQVQLQESGPGLVKPSETLSLTCTVSGGSISNYYWSWIRQPPGKGLEWIGYIYYSGSTIYNPSLKSRVTISVDTSKNQFSLKLSSVTAADTAVYYCAGDSSGIDYWGQGTLVTVSSESKYGPPCPPCPMFWVLVVVGGVLACYSLLVTVAFIIFWVKRGRKKLLYIFKQPFMRPVQTTQEEDGCSCRFPEEEEGGCELRVKFSRSADAPAYQQGQNQLYNELNLGRREEYDVLDKRRGRDPEMGGKPRRKNPQEGLYNELQKDKMAEAYSEIGMKGERRRGKGHDGLYQGLSTATKDTYDALHMQALPPR
As for B7, in test [1], the “decrease in IFN-γ production with sBAFF, alone or relative to FMC63 scFv alone (JeKo-1 co-culture)” value was at most 20% and the “decrease of IFN-γ with FMC63 scFv + sBAFF compared to the inhibition from FMC63 scFv alone (JeKo-1 co-culture)” value is at most 10%.
